Numbering of substitutions follows the chain as printed.
Assays:
[1] = target: T1, α4β1 integrin on J6.77 Jurkat cells (UniProt P13612 34-1032; P05556 21-798); assay: cell-based or functional assay
[2] = target: T2, human α5β1 integrin (human, UniProt P08648 42-1049; P05556 21-798); assay: cell-based or functional assay
[3] = target: T3, β1 integrin chain on HT29 cells (α5 null line) (human, UniProt P05556 21-798); assay: FACS on HT29 cells (no α5, β1 present)
T3 construct: whole, on cells; β1 is paired with alpha chains other than α5 on these cells; also called β1 chain; beta1
T3 sequence (P05556 21-798): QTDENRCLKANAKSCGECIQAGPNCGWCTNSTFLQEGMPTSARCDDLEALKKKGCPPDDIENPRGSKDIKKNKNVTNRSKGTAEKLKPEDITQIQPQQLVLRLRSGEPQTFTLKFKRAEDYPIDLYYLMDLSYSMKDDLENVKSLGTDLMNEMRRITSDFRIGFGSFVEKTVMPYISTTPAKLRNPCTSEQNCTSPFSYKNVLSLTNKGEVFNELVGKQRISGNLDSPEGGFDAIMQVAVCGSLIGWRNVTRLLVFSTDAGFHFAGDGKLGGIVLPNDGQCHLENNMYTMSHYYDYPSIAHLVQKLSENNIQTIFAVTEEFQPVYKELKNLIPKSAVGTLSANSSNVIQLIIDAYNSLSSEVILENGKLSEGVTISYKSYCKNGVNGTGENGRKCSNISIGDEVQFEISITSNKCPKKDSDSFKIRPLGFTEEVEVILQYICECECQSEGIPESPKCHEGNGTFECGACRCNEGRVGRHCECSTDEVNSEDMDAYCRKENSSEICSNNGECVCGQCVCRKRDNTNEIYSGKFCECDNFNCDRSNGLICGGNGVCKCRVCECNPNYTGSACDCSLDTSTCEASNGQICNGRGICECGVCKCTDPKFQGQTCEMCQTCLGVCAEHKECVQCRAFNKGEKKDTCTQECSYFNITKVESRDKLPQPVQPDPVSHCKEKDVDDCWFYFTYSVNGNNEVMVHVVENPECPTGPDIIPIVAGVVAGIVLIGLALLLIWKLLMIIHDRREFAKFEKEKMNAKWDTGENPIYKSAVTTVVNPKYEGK
Procedure: To confirm the antibodies bind to the α5 chain or to the α5β1 heterodimer, binding to Human colon adenocarcinoma grade II cells (HT29 cells) was assessed by FACS. […] HT-29 cells were suspended in HBSS with 1% BSA and 1 mM final MnCL₂ at a concentration of 6×10⁵ cells/ml.12.5 uL of the primary antibody was added to 37.5 ul of cells and the plate incubated on ice for 60 minutes. A range of negative controls were included as described previously (indicated as below). In addition as a positive control antibodies to αvβ6 (Mab2077, Chemicon), α5β1 (Mab1909, Chemicon) and av (L230, Chemicon) were included. 100 uL of HBSS buffer was added to dilute primary antibody, the cells pelleted by centrifuging at 1500 rpm for 3 minutes and resuspended in 50 ul Goat anti-human IgG Fc Cy5 or Goat anti Mouse IgG Fc Cy5 secondary at 2 ug/mL. They were then incubated on ice for a further 7 minutes, and 100 uL of HBSS buffer was added to dilute secondary antibody. Finally cells were pelleted by centrifuging at 1500 rpm for 3 minutes, HBSS Buffer/secondary supernatant removed, washed twice in 100 ul of FACS buffer was added and the cells were resuspended and then read on a FACS Calibur HTS. Samples were analyzed using Cell Quest Pro software. The data is represented in Table 6 and confirm that the antibodies are selective for α5β1.

[4] = target: T1, α4β1 integrin on J6.77 Jurkat cells; assay: cell-based or functional assay; remark: listed apart in the source
[5] = target: T2, human α5β1 integrin; assay: cell-based or functional assay; remark: listed apart in the source
[6] = target: T4, Macaque α5β1 (Macaque); assay: FACS on macaque PBMC, 1 mM Mn2+
T4 construct: whole, on cells; macaque species not specified; also called monkey α5β1; monkey integrin
Procedure: To determine whether the antibodies cross reacted to monkey integrin, binding to purified Macaque T-cells was assessed. Macaque PBMCs were previously purified from whole blood, and stored frozen. Macaque PBMCs were suspended in adhesion buffer with HBSS 1% BSA and 1 mM Mn2+ (“FACS buffer”), at a concentration of 4.8×10⁵ live cells per ml. 12.5 uL of the primary antibody was added to 37.5 ul of cells, and incubated at 4° C. for 1 hour. Positive and negative controls were included as indicated. 100 uL of FACs buffer is added to dilute out primary antibody, the cells washed and resuspended in the appropriate secondary at 2 ug/mL (50 uL) with 10 ug/mL 7AAD, and stained on ice for 7 minutes. 100 uL of FACs buffer was added and cells were washed twice in FACS buffer, finally the supernatant removed and the cells were resuspended in 100 uL of buffer.
Samples were read on HTS FACS machine and analyzed using Cell Quest Pro software. The data shown in Table 7 confirm that the antibodies cross react with monkey α5β1.

T2 sequence (P08648 42-1049, chain 1 of 2): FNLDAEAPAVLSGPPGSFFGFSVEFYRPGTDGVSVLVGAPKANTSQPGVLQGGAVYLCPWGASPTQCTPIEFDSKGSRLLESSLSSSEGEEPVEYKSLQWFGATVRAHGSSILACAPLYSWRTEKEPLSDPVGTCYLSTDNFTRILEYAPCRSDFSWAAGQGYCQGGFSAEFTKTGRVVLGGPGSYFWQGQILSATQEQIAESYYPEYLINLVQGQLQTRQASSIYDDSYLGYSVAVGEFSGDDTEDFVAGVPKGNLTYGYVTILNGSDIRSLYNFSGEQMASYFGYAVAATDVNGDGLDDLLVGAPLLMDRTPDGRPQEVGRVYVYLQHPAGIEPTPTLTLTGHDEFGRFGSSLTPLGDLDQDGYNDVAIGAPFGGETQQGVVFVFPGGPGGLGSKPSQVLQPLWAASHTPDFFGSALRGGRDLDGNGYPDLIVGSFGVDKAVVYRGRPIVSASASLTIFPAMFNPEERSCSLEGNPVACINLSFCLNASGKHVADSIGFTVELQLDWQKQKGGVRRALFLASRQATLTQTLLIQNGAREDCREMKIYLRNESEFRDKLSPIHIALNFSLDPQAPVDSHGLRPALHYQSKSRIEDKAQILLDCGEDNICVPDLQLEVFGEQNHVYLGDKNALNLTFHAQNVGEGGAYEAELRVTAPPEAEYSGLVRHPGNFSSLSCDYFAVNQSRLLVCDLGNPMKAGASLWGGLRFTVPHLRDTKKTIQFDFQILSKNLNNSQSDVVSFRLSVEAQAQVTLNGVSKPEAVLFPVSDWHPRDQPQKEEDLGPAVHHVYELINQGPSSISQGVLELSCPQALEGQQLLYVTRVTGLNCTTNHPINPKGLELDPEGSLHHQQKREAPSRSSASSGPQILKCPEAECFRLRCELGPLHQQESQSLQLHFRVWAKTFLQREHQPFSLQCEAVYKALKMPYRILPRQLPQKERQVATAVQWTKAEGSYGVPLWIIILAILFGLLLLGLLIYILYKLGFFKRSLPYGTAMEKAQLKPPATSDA
T2 sequence (P05556 21-798, chain 2 of 2): as the sequence (P05556 21-798) above
T1 sequence (P13612 34-1032, chain 1 of 2): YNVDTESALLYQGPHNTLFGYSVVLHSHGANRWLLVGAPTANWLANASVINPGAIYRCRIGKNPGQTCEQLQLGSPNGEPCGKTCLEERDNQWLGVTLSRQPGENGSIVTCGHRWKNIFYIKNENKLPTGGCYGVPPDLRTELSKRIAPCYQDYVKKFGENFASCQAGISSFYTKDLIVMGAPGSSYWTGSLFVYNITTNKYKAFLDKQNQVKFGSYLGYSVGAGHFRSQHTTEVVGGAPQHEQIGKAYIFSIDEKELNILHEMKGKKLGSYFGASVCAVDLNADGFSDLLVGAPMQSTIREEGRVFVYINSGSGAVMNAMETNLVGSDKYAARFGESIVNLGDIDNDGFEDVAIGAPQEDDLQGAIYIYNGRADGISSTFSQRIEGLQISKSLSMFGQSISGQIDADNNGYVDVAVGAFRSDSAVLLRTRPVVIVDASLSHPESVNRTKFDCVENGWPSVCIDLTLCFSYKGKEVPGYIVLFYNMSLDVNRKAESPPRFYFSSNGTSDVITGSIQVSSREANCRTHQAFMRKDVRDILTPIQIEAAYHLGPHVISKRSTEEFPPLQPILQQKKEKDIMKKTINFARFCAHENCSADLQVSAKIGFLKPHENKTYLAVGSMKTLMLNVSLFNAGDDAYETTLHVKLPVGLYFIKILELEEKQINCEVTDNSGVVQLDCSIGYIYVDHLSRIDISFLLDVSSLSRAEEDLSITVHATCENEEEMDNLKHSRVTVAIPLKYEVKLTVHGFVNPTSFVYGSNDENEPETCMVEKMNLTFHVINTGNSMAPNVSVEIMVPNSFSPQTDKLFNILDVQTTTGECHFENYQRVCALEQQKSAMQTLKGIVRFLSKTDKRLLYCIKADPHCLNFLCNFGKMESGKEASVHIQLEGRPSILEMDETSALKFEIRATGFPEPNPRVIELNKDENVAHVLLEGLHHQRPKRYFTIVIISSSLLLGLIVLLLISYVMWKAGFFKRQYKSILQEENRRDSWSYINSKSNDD
T1 sequence (P05556 21-798, chain 2 of 2): as the sequence (P05556 21-798) above

B1: 7B2.3B10 (antibody, IgG4, V domains shown)
VH: QVQLVESGGGVVQPGRSLRLSCAASGFTFSSYGMHWVRQAPGKGLEWVAVIWYDGSYKYYADSVQGRFTISRDNSKNTLYLQMNSLRAEDTAVYYCARDKGGHYFDYWGQGTLVTVSS
VL: DIQMTQSPSSLSASVGDRVTITCRASQSISSYLNWYQQKPGKAPKLLIYAASSLQSGVPSRFSGSGSGTDFTLTISSLQPEDFATYYCQQNFSFPPEWTFGQGTKVEIK
- Average % inhibition at 5 ug/ml (J6 adhesion to GST-CS-1) [1]: -14%
- % Inhibition of cell adhesion n = 1 (K562 on full length FN) [2]: 93%
- % Inhibition of cell adhesion n = 2 (K562 on full length FN) [2]: 100%
- % Inhibition of cell adhesion n = 3 (K562 on GST-FNIII(9-10), no pre-incubation) [2]: 94%
- % Inhibition of cell adhesion n = 4 (K562 on GST-FNIII(9-10), supernatant 1 in 10) [2]: 85%
- % Inhibition of cell adhesion n = 5 (K562 on GST-FNIII(9-10), supernatant 1 in 10) [2]: 75%
- Binding Geomean [3]: 3.1
- binding result [3]: no binding
- % Inhibition of adhesion CS1 n = 1 (J6.77 Jurkat on GST-CS-1) [4]: 45%
- % Inhibition of adhesion CS1 n = 2 (J6.77 Jurkat on GST-CS-1) [4]: 21%
- IC50 ng/mL (K562 adhesion to GST-FNIII(9-10)) [5]: 57 ng/mL
- Geo Mean on Macaque T-cells IgG detection [6]: 12

B2: 2E10.1B9 (antibody, IgG2, V domains shown)
VH: RVQLQESGPGLVKPTQTLSLTCTVSGGSIISGGYFWTWIRQHPGKGLEWIGYIYYSGSTYYSPSLKSRVTISVDTSKNQFSLKLSSVTAADTAVYYCTRAVPAAKGYYSYYGMDVWGQGTTVTVSS
VL: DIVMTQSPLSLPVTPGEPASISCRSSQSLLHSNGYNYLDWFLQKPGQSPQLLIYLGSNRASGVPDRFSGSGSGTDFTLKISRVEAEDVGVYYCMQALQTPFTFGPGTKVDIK
- % Inhibition of cell adhesion n = 1 (K562 on full length FN) [2]: 97%
- % Inhibition of cell adhesion n = 2 (K562 on full length FN) [2]: 94%
- % Inhibition of cell adhesion n = 3 (K562 on GST-FNIII(9-10), no pre-incubation) [2]: 96%
- % Inhibition of cell adhesion n = 4 (K562 on GST-FNIII(9-10), supernatant 1 in 10) [2]: 86%
- % Inhibition of cell adhesion n = 5 (K562 on GST-FNIII(9-10), supernatant 1 in 10) [2]: 87%
- Binding Geomean [3]: 3.11
- binding result [3]: no binding
- % Inhibition of adhesion CS1 n = 1 (J6.77 Jurkat on GST-CS-1) [4]: 31%
- % Inhibition of adhesion CS1 n = 2 (J6.77 Jurkat on GST-CS-1) [4]: -5%
- Geo Mean on Macaque T-cells IgG detection [6]: 12

B3: 3G11.1A6 (antibody, IgG2, V domains shown)
VH: B2 VH with G27S
VL: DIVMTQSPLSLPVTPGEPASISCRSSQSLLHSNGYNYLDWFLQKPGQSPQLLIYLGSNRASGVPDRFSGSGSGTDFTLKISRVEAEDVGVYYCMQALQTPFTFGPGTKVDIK
- Average % inhibition at 5 ug/ml (J6 adhesion to GST-CS-1) [1]: -2%
- % Inhibition of cell adhesion n = 1 (K562 on full length FN) [2]: 99%
- % Inhibition of cell adhesion n = 2 (K562 on full length FN) [2]: 99%
- % Inhibition of cell adhesion n = 3 (K562 on GST-FNIII(9-10), no pre-incubation) [2]: 93%
- % Inhibition of cell adhesion n = 4 (K562 on GST-FNIII(9-10), supernatant 1 in 10) [2]: 92%
- % Inhibition of cell adhesion n = 5 (K562 on GST-FNIII(9-10), supernatant 1 in 10) [2]: 100%
- Binding Geomean [3]: 3.02
- binding result [3]: no binding
- % Inhibition of adhesion CS1 n = 1 (J6.77 Jurkat on GST-CS-1) [4]: 17%
- % Inhibition of adhesion CS1 n = 2 (J6.77 Jurkat on GST-CS-1) [4]: 9%
- IC50 ng/mL (K562 adhesion to GST-FNIII(9-10)) [5]: 9 ng/mL
- Geo Mean on Macaque T-cells IgG detection [6]: 13

B4: 2A9.1A1 (antibody, IgG2, V domains shown)
VH: B2 VH
VL: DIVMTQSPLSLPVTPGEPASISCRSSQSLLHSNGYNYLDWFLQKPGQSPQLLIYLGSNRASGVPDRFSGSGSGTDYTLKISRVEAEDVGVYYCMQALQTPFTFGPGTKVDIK
- Average % inhibition at 5 ug/ml (J6 adhesion to GST-CS-1) [1]: -19%
- % Inhibition of cell adhesion n = 1 (K562 on full length FN) [2]: 100%
- % Inhibition of cell adhesion n = 2 (K562 on full length FN) [2]: 94%
- % Inhibition of cell adhesion n = 3 (K562 on GST-FNIII(9-10), no pre-incubation) [2]: 96%
- % Inhibition of cell adhesion n = 4 (K562 on GST-FNIII(9-10), supernatant 1 in 10) [2]: 94%
- % Inhibition of cell adhesion n = 5 (K562 on GST-FNIII(9-10), supernatant 1 in 10) [2]: 100%
- Binding Geomean [3]: 4.73
- binding result [3]: no binding
- % Inhibition of adhesion CS1 n = 1 (J6.77 Jurkat on GST-CS-1) [4]: 2%
- % Inhibition of adhesion CS1 n = 2 (J6.77 Jurkat on GST-CS-1) [4]: 11%
- IC50 ng/mL (K562 adhesion to GST-FNIII(9-10)) [5]: 14.1 ng/mL
- Geo Mean on Macaque T-cells IgG detection [6]: 12

B5: 3C2.2A8 (antibody, IgG2, V domains shown)
VH: B2 VH
VL: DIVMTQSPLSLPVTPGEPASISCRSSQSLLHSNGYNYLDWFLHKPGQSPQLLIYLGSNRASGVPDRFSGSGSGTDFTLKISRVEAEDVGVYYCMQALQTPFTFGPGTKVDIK
notes: also called mAb 3C2.2A8
- Average % inhibition at 5 ug/ml (J6 adhesion to GST-CS-1) [1]: 1%
- % Inhibition of cell adhesion n = 1 (K562 on full length FN) [2]: 99%
- % Inhibition of cell adhesion n = 2 (K562 on full length FN) [2]: 100%
- % Inhibition of cell adhesion n = 3 (K562 on GST-FNIII(9-10), no pre-incubation) [2]: 102%
- % Inhibition of cell adhesion n = 4 (K562 on GST-FNIII(9-10), supernatant 1 in 10) [2]: 94%
- % Inhibition of cell adhesion n = 5 (K562 on GST-FNIII(9-10), supernatant 1 in 10) [2]: 96%
- Binding Geomean [3]: 3.29
- binding result [3]: no binding
- % Inhibition of adhesion CS1 n = 1 (J6.77 Jurkat on GST-CS-1) [4]: 22%
- % Inhibition of adhesion CS1 n = 2 (J6.77 Jurkat on GST-CS-1) [4]: 18%
- IC50 ng/mL (K562 adhesion to GST-FNIII(9-10)) [5]: 12.4 ng/mL
- Geo Mean on Macaque T-cells IgG detection [6]: 10

B6: 2C5.2B12 (antibody, IgG2, V domains shown)
VH: B2 VH
VL: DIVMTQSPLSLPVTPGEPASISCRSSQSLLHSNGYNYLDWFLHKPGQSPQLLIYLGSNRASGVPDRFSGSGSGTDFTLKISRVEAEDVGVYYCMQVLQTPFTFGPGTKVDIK
- Average % inhibition at 5 ug/ml (J6 adhesion to GST-CS-1) [1]: 18%
- % Inhibition of cell adhesion n = 1 (K562 on full length FN) [2]: 100%
- % Inhibition of cell adhesion n = 2 (K562 on full length FN) [2]: 96%
- % Inhibition of cell adhesion n = 3 (K562 on GST-FNIII(9-10), no pre-incubation) [2]: 101%
- % Inhibition of cell adhesion n = 4 (K562 on GST-FNIII(9-10), supernatant 1 in 10) [2]: 96%
- % Inhibition of cell adhesion n = 5 (K562 on GST-FNIII(9-10), supernatant 1 in 10) [2]: 97%
- Binding Geomean [3]: 3.6
- binding result [3]: no binding
- % Inhibition of adhesion CS1 n = 1 (J6.77 Jurkat on GST-CS-1) [4]: 14%
- % Inhibition of adhesion CS1 n = 2 (J6.77 Jurkat on GST-CS-1) [4]: -5%
- IC50 ng/mL (K562 adhesion to GST-FNIII(9-10)) [5]: 11.9 ng/mL
- Geo Mean on Macaque T-cells IgG detection [6]: 11

B7: 9E2.3A8 (antibody, IgG4, V domains shown)
VH: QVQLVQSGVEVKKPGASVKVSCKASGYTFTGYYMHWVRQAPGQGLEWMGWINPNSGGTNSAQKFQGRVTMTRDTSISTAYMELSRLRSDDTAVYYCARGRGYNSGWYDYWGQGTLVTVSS
VL: DIVMTQSPDSLAVSLGERATINCKSSQSVLHNSHNENYLTWYQQKPGQPPKLLIYWASSRESGVPDRFSGSGSGTDFTLSISSLQADDVAVYYCQQYFSNPWTFGQGTKVEIK
- Average % inhibition at 5 ug/ml (J6 adhesion to GST-CS-1) [1]: 2%
- % Inhibition of cell adhesion n = 1 (K562 on full length FN) [2]: 98%
- % Inhibition of cell adhesion n = 2 (K562 on full length FN) [2]: 100%
- % Inhibition of cell adhesion n = 3 (K562 on GST-FNIII(9-10), no pre-incubation) [2]: 94%
- % Inhibition of cell adhesion n = 4 (K562 on GST-FNIII(9-10), supernatant 1 in 10) [2]: 94%
- % Inhibition of cell adhesion n = 5 (K562 on GST-FNIII(9-10), supernatant 1 in 10) [2]: 87%
- Binding Geomean [3]: 2.86
- binding result [3]: no binding
- % Inhibition of adhesion CS1 n = 1 (J6.77 Jurkat on GST-CS-1) [4]: 40%
- % Inhibition of adhesion CS1 n = 2 (J6.77 Jurkat on GST-CS-1) [4]: 10%
- IC50 ng/mL (K562 adhesion to GST-FNIII(9-10)) [5]: 73.4 ng/mL
- Geo Mean on Macaque T-cells IgG detection [6]: 12

B8: 8A6.1A3 (antibody, IgG4, V domains shown)
VH: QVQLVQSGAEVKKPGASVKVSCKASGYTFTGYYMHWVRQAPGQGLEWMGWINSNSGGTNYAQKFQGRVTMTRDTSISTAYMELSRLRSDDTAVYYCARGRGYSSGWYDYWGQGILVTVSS
VL: B7 VL with L30F, H31F, N32S, H34S, S59T, S80T, D87E, F98Y, S99N, N100I
- Average % inhibition at 5 ug/ml (J6 adhesion to GST-CS-1) [1]: -23%
- % Inhibition of cell adhesion n = 1 (K562 on full length FN) [2]: 99%
- % Inhibition of cell adhesion n = 2 (K562 on full length FN) [2]: 95%
- % Inhibition of cell adhesion n = 3 (K562 on GST-FNIII(9-10), no pre-incubation) [2]: 91%
- % Inhibition of cell adhesion n = 4 (K562 on GST-FNIII(9-10), supernatant 1 in 10) [2]: 92%
- % Inhibition of cell adhesion n = 5 (K562 on GST-FNIII(9-10), supernatant 1 in 10) [2]: 90%
- Binding Geomean [3]: 2.99
- binding result [3]: no binding
- % Inhibition of adhesion CS1 n = 1 (J6.77 Jurkat on GST-CS-1) [4]: 24%
- % Inhibition of adhesion CS1 n = 2 (J6.77 Jurkat on GST-CS-1) [4]: 9%
- IC50 ng/mL (K562 adhesion to GST-FNIII(9-10)) [5]: 52.2 ng/mL
- Geo Mean on Macaque T-cells IgG detection [6]: 11
